Key:
[1] = biological target: rHuman HGF R/c-MET/Fc Chimera, CF (R&D Systems Cat#358-MT/CF) (human) (UniProt P08581); test: ECL (MSD Multi-Spot) binding, antigen spotted on plate; Fab 0.0625 nM
[2] = biological target: rHuman EGF R/Fc Chimera, CF (R&D Systems Cat#344-ER) (human) (UniProt P00533); test: as above
[3] = biological target: rHuman ErbB2/Fc Chimera, CF (R&D Systems Cat#1129-ER) (human) (UniProt P04626); test: as above
[4] = biological target: rHuman HGF R/c-MET/Fc Chimera, CF (R&D Systems Cat#358-MT/CF) (human) (UniProt P08581); test: ECL (MSD Multi-Spot) binding, antigen spotted on plate; Fab 500 nM
[5] = biological target: rHuman EGF R/Fc Chimera, CF (R&D Systems Cat#344-ER) (human) (UniProt P00533); test: as above
[6] = biological target: rHuman ErbB2/Fc Chimera, CF (R&D Systems Cat#1129-ER) (human) (UniProt P04626); test: as above
[7] = biological target: rHuman HGF R/c-MET/Fc Chimera, CF (R&D Systems Cat#358-MT/CF) (human) (UniProt P08581); test: ECL (MSD Multi-Spot) binding, antigen spotted on plate; Fab 1.25 nM
[8] = biological target: rHuman EGF R/Fc Chimera, CF (R&D Systems Cat#344-ER) (human) (UniProt P00533); test: as above
[9] = biological target: rHuman ErbB2/Fc Chimera, CF (R&D Systems Cat#1129-ER) (human) (UniProt P04626); test: as above
[10] = biological target: rHuman HGF R/c-MET/Fc Chimera, CF (R&D Systems Cat#358-MT/CF) (human) (UniProt P08581); test: ECL (MSD Multi-Spot) binding, antigen spotted on plate; Fab 25 nM
[11] = biological target: rHuman EGF R/Fc Chimera, CF (R&D Systems Cat#344-ER) (human) (UniProt P00533); test: as above
[12] = biological target: rHuman ErbB2/Fc Chimera, CF (R&D Systems Cat#1129-ER) (human) (UniProt P04626); test: as above
[13] = biological target: rHuman P-Cadherin/Fc Chimera, CF (R&D Systems Cat#861-PC) (human) (UniProt P22223); test: MSD ECL multi-spot assay, antigen spotted on plate, Fab 1.57 uM; blank spot 797

| ECL signal [1] | ECL signal [2] | ECL signal [3] | ECL signal [4] | ECL signal [5] | ECL signal [6] | ECL signal [7] | ECL signal [8] | ECL signal [9] | ECL signal [10] | ECL signal [11] | ECL signal [12] | ECL signal [13] | Binder |
| --- | --- | --- | --- | --- | --- | --- | --- | --- | --- | --- | --- | --- | --- |
| 643 | 736 | 692 | 1300 | 1110 | 957 | 774 | 729 | 695 | 805 | 821 | 927 | – | Fab VH5-51_IGHD5-18*01>3_IGHJ4*01_G100K_G104T & V3-4_IGLJ1*01 (Fab, V domains shown) VH: EVQLVQSGAEVKKPGESLKISCKGSGYSFTSYWIGWVRQMPGKGLEWMGIIYPGDSDTRYSPSFQGQVTISADKSISTAYLQWSSLKASDTAMYYCARRKYSYTYDYFDYWGQGTLVTVSS VL: QTVVTQEPSFSVSPGGTVTLTCGLSSGSVSTSYYPSWYQQTPGQAPRTLIYSTNTRSSGVPDRFSGSILGNKAALTITGAQADDESDYYCVLYMGSGISYVFGTGTKVTVL |
| – | – | – | – | – | – | – | – | – | – | – | – | 2030 | Fab VH1-46_IGHD3-10*01_IGHJ4*01 & O1_IGKJ1*01 (Fab, V domains shown) VH: QVQLVQSGAEVKKPGASVKVSCKASGYTFTSYYMHWVRQAPGQGLEWMGIINPSGGSTSYAQKFQGRVTMTRDTSTSTVYMELSSLRSEDTAVYYCAREYYYGSGSYYNDYFDYWGQGTLVTVSS VL: DIVMTQTPLSLPVTPGEPASISCRSSQSLLDSDDGNTYLDWYLQKPGQSPQLLIYTLSYRASGVPDRFSGSGSGTDFTLKISRVEAEDVGVYYCMQRIEFPSWTFGQGTKVEIK |

From patent publication US20120058906A1
